Data from US7951572B2, “Construction of gold nanoparticle-based peptide chip, and assaying enzyme activity and inhibitor effect using secondary ion mass spectrometric analysis thereof” (Korea Advanced Institute of Science and Technology, priority 2006, dated 2011).

Assays:
[1] = test system: T1, Ac-IYAAPKKGGGGC (SEQ ID NO: 8)
T1 sequence: IYAAPKKGGGGC

[2] = test system: T2, Ac-LRRASLGGGGC (SEQ ID NO: 9)
T2 sequence: LRRASLGGGGC

PKA kinase = PKA kinase (Homo sapiens, UniProt P17612); assay: Quantitative analysis of inhibitory reaction against kinase on gold nanoparticle-peptide chip by secondary ion mass spectrometry; assay type: biochemical; details: ATP 10 μM, kinase 1 U, 30° C. for 2 hours, non-linear regression
Experimental: As one example for analyzing an inhibitory reaction against kinase activity, the effect of 4-cyano-3-methylisoquinoline (CMIQ, Sigma), an inhibitor against PKA kinase, was illustrated.
After silicon rubber having circular holes (3 mm diameter and 1 mm height) was attached to the surface of a slide glass (75×25 mm) consisting of a glass substrate, a gold nanoparticle-peptide chip was constructed in each of the holes according to the method of Examples 1-(3).
CMIQ was dissolved in a minimum amount of distilled water to prepare solutions having varying CMIP concentrations of 0.1 nM, 0.5 nM, 1 nM, 5 nM, 10 nM, 50 nM, 100 nM, 500 nM, 1 μM and 5 μM, and each of the solutions was mixed with kinase, was introduced into the gold nanoparticle-peptide chip formed in the holes and was allowed to react at 30° C. for 2 hours. In this reaction, the concentration of ATP was 10 μM, and the concentration of kinase used was 1 U. Since the amount of the peptide attached to the surface would generally be constant, the ATP and kinase concentrations were determined as concentrations at which the maximum enzyme reaction occurred.
The choice of the peaks before and after phosphorylation is not limited thereto, and peaks changed by phosphorylation as shown in FIG. 2 may all be applied. […]
More specifically, the values of Ap1 and Ap2 in the two reference samples, that is, the gold nanoparticle-peptide chip before treatment with kinase and the gold nanoparticle-peptide chip after phosphorylation, would be different depending on the intensity of ions. Thus, to correct this difference, percent phosphorylation was calculated according to the following equation 1: […]
In order to calculate percent inhibition, substitution from the percent phosphorylation value calculated in the equation 1 is made. […] More specifically, after the phosphorylation level at each concentration of the inhibitor is calculated, percent inhibition can be calculated according to the following equation 2: […]

Molecule | SIMS chemical imaging of the phosphorylated peptide ion on microarray spots (2 nM Abl, 100 uM ATP) [1] | change of the peptide mass peak (SIMS) on a chip carrying both peptides [1] | phosphorylation of the chip-bound peptide, seen as a mass change in secondary ion mass spectrometry [1] | SIMS chemical imaging of the phosphorylated peptide ion on microarray spots [2] | change of the peptide mass peak (SIMS) on a chip carrying both peptides [2] | SIMS chemical imaging of the phosphorylated peptide ion on microarray spots [1] | SIMS chemical imaging of the phosphorylated peptide ion on microarray spots (50 nM PKA, 100 uM ATP) [2] | n (exponent of equation 3) (PKA kinase) | IC50 (PKA kinase; equation 3) | Imax (percent inhibition at which the maximum inhibitory effect of the inhibitor occurs) (PKA kinase; equation 3)
Abl kinase (Calbiochem) | kinase-treated spots (line 1 and 2) yielded strong ion mass images (i.e. [PAblH-SH-COOH+HPO3]+ or [PPKAH-SH-COOH+HPO3]+) | only the mass signals of peptides specific for the kinases were changed | the phosphorylation of the peptide occurred | No cross-images of kinases against opposite peptides were observed | the AbI kinase and the PKA kinase did not influence the mass peaks of other peptides | – | – | – | – | –
PKA kinase | – | the AbI kinase and the PKA kinase did not influence the mass peaks of other peptides | – | – | only the mass signals of peptides specific for the kinases were changed | No cross-images of kinases against opposite peptides were observed | kinase-treated spots (line 1 and 2) yielded strong ion mass images (i.e. [PAblH-SH-COOH+HPO3]+ or [PPKAH-SH-COOH+HPO3]+) | – | – | –
Cc1ncc2ccccc2c1C#N [CMIQ, 4-cyano-3-methylisoquinoline] | – | – | – | – | – | – | – | 0.9996 | ~87 nM | 100%
